Measured values as given in article doi:10.1101/558098.
Like-named read-outs stand apart in the source and are kept apart here.

Columns and labels:
Test in all cases: EMSA
[1] = biological target: T1, IMP1 (human, UniProt Q9NZI8 1-577)
[2] = biological target: T2, YBX1 (human, UniProt P67809 1-324)
[3] = biological target: T2, YBX1; remark: listed apart in the source
[4] = biological target: T1, IMP1; remark: listed apart in the source
[5] = biological target: T2, YBX1; remark: listed apart in the source
[6] = biological target: T1, IMP1; remark: listed apart in the source
[7] = biological target: T2, YBX1; remark: listed apart in the source
[8] = biological target: T1, IMP1; remark: listed apart in the source
[9] = biological target: IMP1_KH1-4mut (human, UniProt Q9NZI8 1-577, K213E;E214L;K294E;E295L;K423E;K424L;K505E;G506L)
IMP1_KH1-4mut, sequence (Q9NZI8 whole entry K213E/E214L/K294E/E295L/K423E/K424L/K505E/G506L): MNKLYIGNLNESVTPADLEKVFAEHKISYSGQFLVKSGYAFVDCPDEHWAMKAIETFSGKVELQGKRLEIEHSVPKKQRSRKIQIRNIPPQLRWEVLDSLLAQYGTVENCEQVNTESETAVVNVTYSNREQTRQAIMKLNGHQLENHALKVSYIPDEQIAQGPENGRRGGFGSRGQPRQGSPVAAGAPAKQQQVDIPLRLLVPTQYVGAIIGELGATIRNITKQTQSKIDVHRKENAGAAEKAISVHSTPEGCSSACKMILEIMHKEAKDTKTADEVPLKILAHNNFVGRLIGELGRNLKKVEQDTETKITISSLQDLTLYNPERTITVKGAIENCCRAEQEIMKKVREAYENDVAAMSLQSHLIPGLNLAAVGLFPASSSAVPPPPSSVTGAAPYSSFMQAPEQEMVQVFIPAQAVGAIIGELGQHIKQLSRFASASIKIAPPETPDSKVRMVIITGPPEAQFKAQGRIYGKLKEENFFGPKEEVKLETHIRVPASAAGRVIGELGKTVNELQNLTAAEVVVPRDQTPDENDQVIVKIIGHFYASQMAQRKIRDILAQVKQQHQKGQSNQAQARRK

T1 sequence (Q9NZI8 whole entry): as the sequence (Q9NZI8 whole entry K213E/E214L/K294E/E295L/K423E/K424L/K505E/G506L) above, with E213K, L214E, E294K, L295E, E423K, L424K, E505K, L506G counted along it
T2 sequence (P67809 whole entry): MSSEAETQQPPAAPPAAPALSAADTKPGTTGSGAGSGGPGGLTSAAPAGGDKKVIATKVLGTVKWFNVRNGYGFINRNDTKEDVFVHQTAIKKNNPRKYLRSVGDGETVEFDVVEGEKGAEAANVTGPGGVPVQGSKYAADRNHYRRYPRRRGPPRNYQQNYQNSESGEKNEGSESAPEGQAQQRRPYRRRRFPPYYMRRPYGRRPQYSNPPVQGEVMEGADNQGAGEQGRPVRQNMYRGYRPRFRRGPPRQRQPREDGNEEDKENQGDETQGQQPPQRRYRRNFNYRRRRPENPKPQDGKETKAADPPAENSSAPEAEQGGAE

B1: C-MYC 3'UTR (ssRNA)
RNA: GGAAAAGUAAGGAAAACGAUUCCUUCUAACAGAAAUGUCCUGAGCAAUCACCUAUGAACUUGUUUCAAAUGCAUGAUCAAAUGCAACCUCACAACCUUGGCUGAGUCUUGAGACUGAAAGAUUUAGCCAUAAUGUAAACUGCCUCAAAUUGGACUUUGGGCAUAAAAGAACUUUUUUAUGCUUACCAUCUUUUUUUUUUCUUUAACAGAUUUGUAUUUAAGAAUUG
B1: binds [1]; binds [2].

B2: ACTB exon 5 (ssRNA)
RNA: not shown
B2: binds [3]; no binding [4].

B3: ACTB 3'UTR (ssRNA)
RNA: GGCGGACUAUGACUUAGUUGCGUUACACCCUUUCUUGACAAAACCUAACUUGCGCAGAAAACAAGAUGAGAUUGGCAUGGCUUUAUUUGUUUUUUUUGUUUUGUUUUGGUUUUUUUUUUUUUUUUGGCUUGACUCAGGAUUUAAAAACUGGAACGGUGAAGGUGACAGCAGUCGGUUGGAGCGAGCAUCCCCCAAAGUUCACAAUGUGGCCGAGGACUUUGAUUGCACAUUGUU
B3: binds [5]; binds [6].

B4: C-MYC CRD (ssRNA)
RNA: GGACCAGAUCCCGGAGUUGGAAAACAAUGAAAAGGCCCCCAAGGUAGUUAUCCUUAAAAAAGCCACAGCAUACAUCCUGUCCGUCCAAGCAGAGGAGCAAAAGCUCAUUUCUGAAGAGGACUUGUUGCGGAAACGACGAGAACAGUUGAAACACAAACUUGAACAGCUACGGAACUCUUGUGCG
In the case of B4, the binding result [7] is reported as “binds”, the binding result [8] is reported as “binds” and the binding signal [9] is reported as ~10 fold reduction vs wild-type IMP1.
